{"source": "the DeepSol protein solubility set"}
{"test": "soluble on expression in E. coli; label from the status in PepcDB or PDB records"}
{"sequence": "MGHHHHHHGGHMSLEIVKEVERLIREGKILDAFELVKQSAPEELRERIEKSFRDAEEIKKLDGIWKKLMLILHFVYASQDAVERQDKQSLVSCVVSSVNAIKLTIELGMKSITPVLMRNAARALILMDMKENAERMYTEAEKICEENRDEEMLAAIENDLATLYYDMGKYNEAKVKAEEALEIRRKIGTKEELAESLATASEIYVKLGDFDEAEECYREAEKLYRELVEEAESFKLNLAILLSNYAMFRKKLGRYQEAEKMFKEALEIFQNLERIDADFMQFVAAAYRHLGDLYREMKEYSKAEEYYKLSREKFRDIQKRWESVASEGGS", "soluble on expression in E. coli": "soluble"}
{"sequence": "MGHHHHHHGGHMSLIISSLTNPNFKVGLPKVIAEVCDYLNTLDLNALENGRHDINDQIYMNVMEPETAEPSSKKAELHHEYLDVQVLIRGTENIEVGATYPNLSKYEDYNEADDYQLCADIDDKFTVTMKPKMFAVFYPYEPHKPCCVVNGKTEKIKKLVVKVPVKLIEGGS", "soluble on expression in E. coli": "soluble"}
{"sequence": "MGHHHHHHGGHMSLLTFVGLGLWDVKDISVKGLEAVREADEVYVEYYTSKLLSSIEEMEEFFGKRVVELERSDLEENSFRLIERAKSKSVVLLVPGDPMVATTHSAIKLEAERKGVKTRIIHGASISTAVCGLTGLHNYRFGKSATVSWHRSQTPVNVIKANRSIDAHTLLFLDLHPEPMTIGHAVENLIAEDAQMKDLYAVGIARAGSGEEVVKCDRLENLKKIDFGKPLHVMVVLAKTLHFMEFECLREFADAPAELERLVAEGGS", "soluble on expression in E. coli": "soluble"}
{"sequence": "MGHHHHHHGSSIETDRVSKEFIEFLKTFHKTGQEIYKQTKLFLEGMHYKRDLSIEEQSECAQDFYHNVAERMQTRGKVPPERVEKIMDQIEKYIMTRLYKYVFCPETTDDEKKDLAIQKRIRALRWVTPQMLCVPVNEDIPEVSDMVVKAITDIIEMDSKRVPRDKLACITKCSKHIFNAIKITKNEPASADDFLPTLIYIVLKGNPPRLQSNIQYITRFCNPSRLMTGEDGYYFTNLCCAVAFIEKLDAQSLNLSQEDFDRYMSGQTSPRKQ", "soluble on expression in E. coli": "soluble"}
{"sequence": "MGHHHHHHHHHHSSGHIDDDDLHMDMHSGTFNPQDFAWQGLTLTPAAAIHIRELVAKQPGMVGVRLGVKQTGCAGFGYVLDSVSEPDKDDLLFEHDGAKLFVPLQAMPFIDGTEVDFVREGLNQIFKFHNPKAQNECGCGESFGV", "soluble on expression in E. coli": "soluble"}
{"sequence": "MGHHHHHHSHANCAENEEGCTPLHLACRKGDGEILVELVQYCHTQMDVTDYKGETVFHYAVQGDNSQVLQLLGRNAVAGLNQVNNQGLTPLHLACQLGKQEMVRVLLLCNARCNIMGPNGYPIHSAMKFSQKGCAEMIISMDSSQIHSKDPRYGASPLHWAKNAEMARMLLKRGCNVNSTSSAGNTALHVAVMRNRFDCAIVLLTHGANADARGEHGNTPLHLAMSKDNVEMIKALIVFGAEVDTPNDFGETPTFLASKIGRLVTRKAILTLLRTVGAEYCFPPIHGVPAEQGSAA", "soluble on expression in E. coli": "not soluble"}
{"sequence": "MGHHHHHHSHEWGTVQLRGSWRVGQTAGGSRNFASYPTNPCFPFSVPEGPGPRCVRITLHQHCRPSDTEFHPIGFHIFQVPEGGRSQDAPPLLLQEPLLSCVPHRYAQEVSRLCLLPAGTYKVVPSTYLPDTEGAFTVTIATRIDRPSIHSQEMLGQFLQEVSVMAVMKT", "soluble on expression in E. coli": "not soluble"}
{"sequence": "MGHHHHHHSHIAELYGAVLWGETVHLFMEAGEGGSVLEKLESCGPMREFEIIWVTKHVLKGLDFLHSKKVIHHDIKPSNIVFMSTKAVLVDFGLSVQMTEDVYFPKDLRGTEIYMSPEVILCRGHSTKADIYSLGATLIHMQTGTPPWVKRYPRSAYPSYLYIIHKQAPPLEDIADDCSPGMRELIEASLER", "soluble on expression in E. coli": "not soluble"}
{"sequence": "MGHHHHHHSHKCNAGFFHTLSGECVPCDCNGNSNECLDGSGYCVTTDGEDPGFSASALSFILSSQGAREARAPT", "soluble on expression in E. coli": "not soluble"}
{"sequence": "MGHHHHHHSHKPIKVEKTVTINKPADELYRYWHNFENLPTFMKHLKSVKVYNEKRSHWIANAPLGNSVEWDADILEDRENEFISWASAEGADVENSGFVRFQKAPGDVPGQAASRLRGTEVKVVLEYNLPGGALAAVVAKLFGEEP", "soluble on expression in E. coli": "not soluble"}
{"sequence": "MGHHHHHHSHLSPEPPVYSLQDFDTLATVGTGTFGRVHLVKEKTAKHFFALKVMSIPDVIRLKQEQHVHNEKSVLKEVSHPFLIRLFWTWHDERFLYMLMEYVPGGELFSYLRNRGRFSSTTGLFYSAEIICAIEYLHSKEIVYRDLKPENILLDRDGHIKLTDFGFAKKLVDRTWTLCGTPEYLAPEVIQSKGHGRAVDWWALGILIFEMLSGFPPFFDDNPFGIYQKILAGKIDFPRHLDFHVKDLIKKLLVVDRTRRLGNMKNGANDVKHHRWFRSVDWEAVPQRKLKPPIVPKIAGDGDTSNFET", "soluble on expression in E. coli": "not soluble"}
{"sequence": "MGHHHHHHSHMAAVDIRDNLLGISWVDSSWIPILNSGSVLDYFSERSNPFYDRTCNNEVVKMQRLTLEHLNQMVGIEYILLHAQEPILFIIRKQQRQSPAQVIPLADYYIIAGVIYQAPDLGSVINSRVLTAVHGIQSAFDEAMSYCRYHPSKGYWWHFKDHEEQDKVRPKAKRKEEPSSIFQRQRVDALLLDLRQKFPPKFVQLKPGEKPVPVDQTKKEAEPIPETVKPEEKETTKNVQQTVSAKGPPEKRMRLQ", "soluble on expression in E. coli": "soluble"}
{"sequence": "MGHHHHHHSHMACYIYQLPSWVLDDLCRNMDALSEWDWMEFASYVITDLTQLRKIKSMERVQGVSITRELLWWWGMRQATVQQLVDLLCRLELYRAAQIILNWKPAPEIRCPIPAFPDSVK", "soluble on expression in E. coli": "soluble"}
{"sequence": "MGHHHHHHSHMADTLAILNEFLLERSKREAEEENQIANKTGKDAQFEEDWQLSQFWYSTETKHALRDVVRKLLAERTKDSGDFSIALLSCPSLYKDIREIHDTVHIFEFDKRFEAYGTDFVHYDLNCVGSNPDYLKEHHQQYDLIVADPPF", "soluble on expression in E. coli": "soluble"}
{"sequence": "MGHHHHHHSHMAGLQRLASHLPVGVMLPHNTTEAPGPHSAKQDSYEQGDSSQQSLKGHLRNNFQKQLLSNKELILDKVYTHPKWNTQTKARSYSYPHCTGISQQDPESDSQGQGNGLFYSSGPQSWYPKANNQDFIPFTKKRVGVDRAFPLKPMVHRKSCSTGEAGTDGDHNVYPRPPEPREFSSRNFGVRNQGNFSVVGTVLAATQAEKAVANFDRTEWVQIRRLEAAGESLEEEIRRKQILLRGS", "soluble on expression in E. coli": "not soluble"}
{"sequence": "MGHHHHHHSHMANSAGSMANSAGSMPPLSTIDPSGTRSKNMPIKDNALVMFNGKVYLLAKKGTDVLPSQIDQQNSVSPDTPVRKDTLQTVSSSPVTEISREVVNIVLAKSKSSQMETKSLSNTQLASMANLRAEKNKVEKPSPSTTNPHMNQSSNYLKQSKTLFTNPIFPVGFSTGHNAPRKVTAVIYARKGSVLQSIEKISSSVDATTVTSQQCVFRDQEPKIHNEMASTSDKGAQGRNDKKDSQGRSNKALHLKSDAEFKKIFGLTKDLRVCLTRIPDHLTSGEGFDSFSSLVKSGTYKETEFMVKEGERKQQNFDKKRKAKTNKKMDHIKKRKTENAYNAIINGEANVTGSQLQYFTNFRCVTT", "soluble on expression in E. coli": "not soluble"}
{"sequence": "MGHHHHHHSHMANSAGSMANSAGSSWHNDHNFSVSKQPNLVVHNHTVTVPEGETVKGDVTVKNGKLIIKGKIDGDVTVVNGEKYMASAGQVTGQIEEINQLFDWTWYKMKSAGKSVLDAFNPNGEE", "soluble on expression in E. coli": "not soluble"}
{"sequence": "MGHHHHHHSHMASVSSATFSGHGARSLLQFLRLVGQLKRVPRTGWVYRNVQRPESVSDHMYRMAVMAMVIKDDRLNKDPEAMKQITQLLPEDLRKELYELWEEYETQSSAEAKFVKQLDQCEMILQASEYEDLEHKPGRLQDFYDSTAGKFNHPEIVQLVSELEAERSTNIAAAASEPHS", "soluble on expression in E. coli": "soluble"}
{"sequence": "MGHHHHHHSHMATSATSPHAPGFPAEGRCGYYVEKKKRFCRMVVAAGKRFCGEHAGAAEEEDARKRILCPLDPKHTVYEDQLAKHLKKCNSREKPKPDFYIQDINAGLRDETEIPEQLVPISSLSEEQLEKLIKKLRKASEGLNSTLKDHIMSHPALHDALNDPKNGDSATKHLKQQVCLGYSNY", "soluble on expression in E. coli": "not soluble"}
{"sequence": "MGHHHHHHSHMAVGTSALSKEPWWTLPENFHSPMVFHMEEDQEELIFGLDDTYLRCIELHSHTLIQLERCFTATGQTRVTVVGPPMAKQWLLLMFHCVGSQDSKCHARGLKMLERVRSQPLTNDDLVTSVSLPPYTGD", "soluble on expression in E. coli": "not soluble"}
{"sequence": "MGHHHHHHSHMDLDSGDVKRRVHLFETQRRTKEEDPIIPFSDGPIISKWGAISRSSRTGYHTTDPVQATASQGSATKPISVSDYVPYVNAVDSRWSSYGNEATSSAHYVERDRFIVTDLSGHRKHSSTGDLLSLELQQAKSNSLLLQREANALAMQQKWNSLDEGRHLTLNLLSKEIELRNGEVKKLNLSASCLMYLFSAAASWLYHY", "soluble on expression in E. coli": "not soluble"}
{"sequence": "MGHHHHHHSHMEIPPTNYPASRAALVAQNYINYQQGTPHRVFEVQKVKQASMEDIPGRGHKYHLKFAVEEIIQKQVKVNCTAEVLYPSTGQETAPEVNFTFEGETGKNPDEEDNTFYQRLKSMKEPLEAQNIPDNFGNVSPEMTLVLHLAWVACGYIIWQNSTEDTWYKMVKIQTVKQVQRNDDFIELDYTILLHNIASQEIIPWQMQVLWHPQYGTKVKHNSRLPKEVQLE", "soluble on expression in E. coli": "not soluble"}
{"sequence": "MGHHHHHHSHMEPRVTQRKRPLDGCMGKITGITSDILKYDHKCFKLSLPAKFPEVCGSDEVFPDPDLLHVLPVAGSLQQSIDQCCLQLESLCRPGLLCAHPTLLFKLHSSMKNRPFFSLIYTYVKKTQQVRKRDRKPRGQVAAGPNPTSVM", "soluble on expression in E. coli": "not soluble"}
{"sequence": "MGHHHHHHSHMEQTEVLKPRTLADLIRILHQLFAGDEVNVEEVQAIMEAYESDPIEWAMYAKFDQYRYTRNLVDQGNGKFNLMILCWGEGHGSSIHDHTNSHCFLKMLQGNLKETLFAWPDKKSNEMVKKSERVLRENQCAYINDSIGLHRVENISHTEPAVSLHLYSPPFDTCHAFDQRTGHKNKVTMTFHSKFGIRTPNATSGSLENN", "soluble on expression in E. coli": "not soluble"}
{"sequence": "MGHHHHHHSHMEVVDPQQLGMFTEGELMSVGMDTFIHRIDSTEVIYQPRRKRAKLIGKYLMGDLLGEGSYGKVKEVLDSETLCRRAVKILKKKKLRRIPNGEANVKKEIQLLRRLRHKNVIQLVDVLYNEEKQKMYMVMEYCVCGMQEMLDSVPEKRFPVCQAHGYFCQLIDGLEYLHSQGIVHKDIKPG", "soluble on expression in E. coli": "not soluble"}
{"sequence": "MGHHHHHHSHMEYSCGTAAIRGTKELGEGQHFWEIKMTSPVYGTLTFFKNRKCIGVAATKLQNKRFYPMVCSTAARSSMKVTRSCASATSLQYLCCHRLRQLRPDSGDTLEGLPLPPGLKQVLHNKLGWVLSMSCSRRKAPVSDPQAATSAHPSSREPRPCQRKRCRRT", "soluble on expression in E. coli": "not soluble"}
{"sequence": "MGHHHHHHSHMFMREIELKGHIIDSFILAKVFDRTLELGGDYKVLEFDIGKKKIDTSYAKLLISGDTQQHLDQILEELQNVGANIPEIENANLKPALKDSVLPDGFYSTTNHPTHVKVNDEWIEVANPKMDAVIVVYPEEKRAETKVIRKVKKGDFVLIGHNGIRVMPPEKSREAGQLFEFMNSEVSSEKPKEAIIKRIAKEMHEIREEYKKTGTGGIAIVGGPAIIHTGGGPALAKMVELGYIQAILAGNALATHDIESALYGTSLGVNIKTAKPVTGGHKHHIYAINAINDAGNIKNAVESGVLKEGIMYQCIKNNIPYVLAGSIRDDGPIPDVITDSMVAQDKMRTTVMDKKMVIMLSTLLHSVATGNLMPSYIKTVCVDIQPSTVTKLMDRGTSQAIGVVTDVGVFLVLLLKELERLELQE", "soluble on expression in E. coli": "soluble"}
{"sequence": "MGHHHHHHSHMGARMTRAFRNFNVEKRAEQEISKRKPSMAPKHPSTRSLLQEHLSQYPEIEEEVSRKDNKLLSLLRDVYVNSKDPVPSLPVKAIEPQQQPKEFRLPIGDQFDKNIKDIPKGKITVVEALTLLNNHKLSPETWTAEKIAQEYHLELEDVNSLLKYFVTFEVKIVPPEDRKAIQSK", "soluble on expression in E. coli": "not soluble"}
